Source: article PMC3362203 (Nature structural & molecular biology, 2011)

Legend:
[1] = target: 1:1 RP105 N402Q–MD-1 complex
[2] = target: bovine 1:1 sRP105–MD-1 complex (building block of the 2:2 complex) (bovine); experiment: crystal structure
[3] = target: bovine 1:1 sRP105–MD-1 complex (building block of the 2:2 complex) (bovine); experiment: SEC
SEC = target: the molecule itself; experiment: SEC

1:1 RP105 N402Q–MD-1 complex was tested, and the stoichiometry N [1] was 2.

“bovine 1:1 sRP105–MD-1 complex (building block of the 2:2 complex)” was tested, and the stoichiometry N [2] was 2 and the stoichiometry N [3] was 2.

B1: human 1:1 sRP105–MD-1 complex (complex)
chain 1: WDQMCIEKEANKTYNCENLGLSEIPDTLPNTTEFLEFSFNFLPTIHNRTFSRLMNLTFLDLTRCQINWIHEDTFQSHHQLSTLVLTGNPLIFMAETSLNGPKSLKHLFLIQTGISNLEFIPVHNLENLESLYLGSNHISSIKFPKDFPARNLKVLDFQNNAIHYISREDMRSLEQAINLSLNFNGNNVKGIELGAFDSTIFQSLNFGGTPNLSVIFNGLQNSTTQSLWLGTFEDIDDEDISSAMLKGLCEMSVESLNLQEHRFSDISSTTFQCFTQLQELDLTATHLKGLPSGMKGLNLLKKLVLSVNHFDQLCQISAANFPSLTHLYIRGNVKKLHLGVGCLEKLGNLQTLDLSHNDIEASDCCSLQLKNLSHLQTLNLSHNEPLGLQSQAFKECPQLELLDLAFTRLHINAPQSPFQNLHFLQVLNLTYCFLDTSNQHLLAGLPVLRHLNLKGNHFQDGTITKTNLLQTVGSLEVLILSSCGLLSIDQQAFHSLGKMSHVDLSHNSLTCDSIDSLSHLKGIYLNLAANSINIISPRLLPILSQQSTINLSHNPLDCTCSNIHFLTWYKENLHKLEGSEETTCANPPSLRGVKLSDVKLSCG
chain 2: GGGGKAWPTHVVCSDSGLEVLYQSCDPLQDFGFSVEKCSKQLKSNINIRFGIILREDIKELFLDLALMSQGSSVLNFSYPICEAALPKFSFCGRRKGEQIYYAGPVNNPEFTIPQGEYQVLLELYTEKRSTVACANATIMCS
With B1 the “stoichiometry N” value (SEC) was 2.

B2: mouse 1:1 sRP105–MD-1 complex (wild type) (complex)
chain 1: TTSSDQKCIEKEVNKTYNCENLGLNEIPGTLPNSTECLEFSFNVLPTIQNTTFSRLINLTFLDLTRCQIYWIHEDTFQSQHRLDTLVLTANPLIFMAETALSGPKALKHLFFIQTGISSIDFIPLHNQKTLESLYLGSNHISSIKLPKGFPTEKLKVLDFQNNAIHYLSKEDMSSLQQATNLSLNLNGNDIAGIELGAFDSAVFQSLNFGGTQNLLVIFKGLKNSTIQSLWLGTFEDMDDEDISPAVFEGLCEMSVESINLQKHYFFNISSNTFHCFSGLQELDLTATHLSELPSGLVGLSTLKKLVLSANKFENLCQISASNFPSLTHLSIKGNTKRLELGTGCLENLENLRELDLSHDDIETSDCCNLQLRNLSHLQSLNLSYNEPLSLKTEAFKECPQLELLDLAFTRLKVKDAQSPFQNLHLLKVLNLSHSLLDISSEQLFDGLPALQHLNLQGNHFPKGNIQKTNSLQTLGRLEILVLSFCDLSSIDQHAFTSLKMMNHVDLSHNRLTSSSIEALSHLKGIYLNLASNRISIILPSLLPILSQQRTINLRQNPLDCTCSNIYFLEWYKENMQKLEDTEDTLCENPPLLRGVRLSDVTLSCS
chain 2: DHGSENGWPKHTACNSGGLEVVYQSCDPLQDFGLSIDQCSKQIQSNLNIRFGIILRQDIRKLFLDITLMAKGSSILNYSYPLCEEDQPKFSFCGRRKGEQIYYAGPVNNPGLDVPQGEYQLLLELYNENRATVACANATVTSS
In the case of B2, the “stoichiometry N” value (SEC) is reported as 2.
